Results taken from publication PMC4227789 (Nucleic Acids Research, 2014).

Biological target: p53 DNA-binding domain (residues 92-312), recombinant untagged (Homo sapiens, UniProt P04637)
Test: ITC

Chain of p53 DNA-binding domain (residues 92-312), recombinant untagged (P04637 92-312): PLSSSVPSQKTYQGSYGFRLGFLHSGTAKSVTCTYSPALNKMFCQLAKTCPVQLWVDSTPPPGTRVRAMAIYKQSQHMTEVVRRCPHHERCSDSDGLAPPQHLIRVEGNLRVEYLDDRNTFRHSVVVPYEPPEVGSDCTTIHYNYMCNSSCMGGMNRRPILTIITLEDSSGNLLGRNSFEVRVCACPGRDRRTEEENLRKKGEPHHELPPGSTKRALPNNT

B1: p53 DBD nanobody 139, recombinant V5-tagged (VHH)
VHH: QVQLQESGGGLVQAGGSLRLSCAASERTFSTYAMGWFRQAPGREREFLAQINWSGTTTYYAESVKDRTTISRDNAKNTVYLEMNNLNADDTGIYFCAAHPQRGWGSTLGWTYWGQGTQVTVSS
  Kd: ~1000 nM
  stoichiometry N: 1
